Laboratory results: patent US20240150422A1

biological target: IL-12 receptor on HEK-Blue IL-12 cells (InvivoGen) (human) (UniProt P42701); test: cell-based or functional assay
Sequence (chain, as listed by the source limits assumed, chain 2 of 2, other chains not shown): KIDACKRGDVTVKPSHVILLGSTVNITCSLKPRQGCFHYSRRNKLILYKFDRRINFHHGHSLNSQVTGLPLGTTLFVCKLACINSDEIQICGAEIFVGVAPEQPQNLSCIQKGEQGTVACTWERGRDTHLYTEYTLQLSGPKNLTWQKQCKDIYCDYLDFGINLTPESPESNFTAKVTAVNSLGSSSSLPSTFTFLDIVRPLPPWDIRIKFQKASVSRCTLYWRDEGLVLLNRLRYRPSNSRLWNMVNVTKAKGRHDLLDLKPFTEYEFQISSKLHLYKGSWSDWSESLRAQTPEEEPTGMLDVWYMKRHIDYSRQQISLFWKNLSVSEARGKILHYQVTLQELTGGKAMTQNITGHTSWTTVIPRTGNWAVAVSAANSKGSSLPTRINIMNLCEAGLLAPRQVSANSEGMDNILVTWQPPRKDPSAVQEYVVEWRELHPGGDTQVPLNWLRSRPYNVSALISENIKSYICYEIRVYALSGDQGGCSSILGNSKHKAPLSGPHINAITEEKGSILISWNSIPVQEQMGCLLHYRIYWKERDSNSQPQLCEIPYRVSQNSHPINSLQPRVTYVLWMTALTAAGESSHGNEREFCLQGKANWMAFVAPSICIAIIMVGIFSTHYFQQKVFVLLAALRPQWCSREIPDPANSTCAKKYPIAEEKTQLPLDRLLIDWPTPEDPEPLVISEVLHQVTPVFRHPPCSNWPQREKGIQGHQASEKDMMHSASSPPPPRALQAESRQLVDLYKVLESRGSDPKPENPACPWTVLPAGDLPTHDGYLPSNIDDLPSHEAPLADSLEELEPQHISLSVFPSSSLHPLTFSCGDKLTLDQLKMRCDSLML

Row | HEK-Blue IL-12 reporter assay, fold reduction in potency (fold (vs IL-12 Fc w.t.)) | HEK-Blue IL-12 reporter assay, fold reduction in EC50 value (fold (vs wild-type)) | Substance
1 | 38 | – | IL-12 Fc double mutant Y40A/D126A (format of Example 1) (from UniProt P29459 23-219; P29460 23-328) (Fc fusion)
2 | – | 67 | IL-12 Fc double mutant Y40A/K168A (Example 7) (from UniProt P29459 23-219; P29460 23-328) (Fc fusion)
3 | – | 6540 | IL-12 Fc double mutant Y40A/K170A (Example 7) (from UniProt P29459 23-219; P29460 23-328) (Fc fusion)
4 | 40 | – | IL-12 Fc double mutant Y40A/P127A (format of Example 1) (from UniProt P29459 23-219; P29460 23-328) (Fc fusion)
5 | – | 44 | IL-12 Fc double mutant Y40A/R129A (Example 7) (from UniProt P29459 23-219; P29460 23-328) (Fc fusion)
6 | 451 | – | IL-12 Fc quadruple mutant Y40A/T43A/D126A/P127A (format of Example 1) (from UniProt P29459 23-219; P29460 23-328) (Fc fusion)
7 | 404 | – | IL-12 Fc triple mutant Y40A/D126A/P127A (format of Example 1) (from UniProt P29459 23-219; P29460 23-328) (Fc fusion)
